Here are results for 13 substances from patent publication US20260108605A1.

Broadly, the Kd is the equilibrium constant for the complex coming apart. Low readings indicate tighter binding, high ones weaker binding. The term koff denotes the rate constant with which the complex falls apart. Low values mean a long-lived complex, high ones a short-lived complex. By kon is commonly meant the rate constant with which the complex forms. Read a high kon as faster complex formation.

This test has as its target antibody anti-FITC IgG1 (prepared in-house). Briefly: SPR, Biacore 8K; anti-FITC IgG1 captured on Protein A chip, CD16a protein as analyte. In general terms: In SPR one partner is held on a chip, and binding of the other changes the refractive index at the surface.
Take “1600E, recombinant fragment of the extracellular domain of CD16a protein with natural mutation F176V (from UniProt P08637 17-208) (receptor)”: the Kd came to 484 nM, the koff is 0.119 s⁻¹ and the kon came out at 245000 M⁻¹ s⁻¹.
Regarding “1600WE, recombinant fragment of the extracellular domain of wild-type CD16a protein (from UniProt P08637 17-208) (receptor)”, the dissociation constant Kd came to 2600 nM, the koff came out at 0.258 s⁻¹ and the kon came to 99500 M⁻¹ s⁻¹.
In turn, “1602E, recombinant fragment of the extracellular domain of CD16a protein with point mutation Q192P (from UniProt P08637 17-208) (receptor)” yielded a Kd of 557 nM, a koff of 0.119 s⁻¹ and a kon of 214000 M⁻¹ s⁻¹.
The corresponding values for “1604E, recombinant fragment of the extracellular domain of CD16a protein with point mutation L194P (from UniProt P08637 17-208) (receptor)” are 477 nM, 0.113 s⁻¹ and 236000 M⁻¹ s⁻¹.
The substance “1615E, recombinant fragment of the extracellular domain of CD16a protein with point mutation A195V (from UniProt P08637 17-208) (receptor)” had a Kd of 576 nM, a koff of 0.113 s⁻¹ and a kon of 196000 M⁻¹ s⁻¹.
The corresponding values for “1623E, recombinant fragment of the extracellular domain of CD16a protein with point mutation V196G (from UniProt P08637 17-208) (receptor)” are 418 nM, 0.105 s⁻¹ and 251000 M⁻¹ s⁻¹.
The substance “1625E, recombinant fragment of the extracellular domain of CD16a protein with point mutation V196Q (from UniProt P08637 17-208) (receptor)” returned a Kd of 415 nM, a koff of 0.112 s⁻¹ and a kon of 270000 M⁻¹ s⁻¹.
For the substance “1626E, recombinant fragment of the extracellular domain of CD16a protein with point mutation V196M (from UniProt P08637 17-208) (receptor)”, the Kd was 476 nM, the koff stood at 0.114 s⁻¹ and the kon was found to be 240000 M⁻¹ s⁻¹.
With “1627E, recombinant fragment of the extracellular domain of CD16a protein with point mutation V196H (from UniProt P08637 17-208) (receptor)”, the Kd stood at 402 nM, the koff came out at 0.107 s⁻¹ and the kon is 267000 M⁻¹ s⁻¹.
The corresponding values for “1630E, recombinant fragment of the extracellular domain of CD16a protein with point mutation S197P (from UniProt P08637 17-208) (receptor)” are 448 nM, 0.117 s⁻¹ and 260000 M⁻¹ s⁻¹.
Substance “1632E, recombinant fragment of the extracellular domain of CD16a protein with point mutation Q192N (from UniProt P08637 17-208) (receptor)” yielded a Kd of 479 nM, a koff of 0.117 s⁻¹ and a kon of 244000 M⁻¹ s⁻¹.
With “1635E, recombinant fragment of the extracellular domain of CD16a protein with point mutation L194I (from UniProt P08637 17-208) (receptor)”, the Kd came to 506 nM, the koff worked out at 0.121 s⁻¹ and the kon came out at 240000 M⁻¹ s⁻¹.
“1637E, recombinant fragment of the extracellular domain of CD16a protein with point mutation V196S (from UniProt P08637 17-208) (receptor)”: the Kd was 391 nM, the koff stood at 0.101 s⁻¹ and the kon is 257000 M⁻¹ s⁻¹.
